How the values were obtained:
[1] = target: Recombinant human pro-MSP 689R (C672A, His tag), uncleaved single chain
[2] = target: Recombinant human pro-MSP 689C (C672A, R689C, His tag), uncleaved single chain
Sequence of Recombinant human pro-MSP 689C (C672A, R689C, His tag), uncleaved single chain (chain, as listed by the source C672A R689C): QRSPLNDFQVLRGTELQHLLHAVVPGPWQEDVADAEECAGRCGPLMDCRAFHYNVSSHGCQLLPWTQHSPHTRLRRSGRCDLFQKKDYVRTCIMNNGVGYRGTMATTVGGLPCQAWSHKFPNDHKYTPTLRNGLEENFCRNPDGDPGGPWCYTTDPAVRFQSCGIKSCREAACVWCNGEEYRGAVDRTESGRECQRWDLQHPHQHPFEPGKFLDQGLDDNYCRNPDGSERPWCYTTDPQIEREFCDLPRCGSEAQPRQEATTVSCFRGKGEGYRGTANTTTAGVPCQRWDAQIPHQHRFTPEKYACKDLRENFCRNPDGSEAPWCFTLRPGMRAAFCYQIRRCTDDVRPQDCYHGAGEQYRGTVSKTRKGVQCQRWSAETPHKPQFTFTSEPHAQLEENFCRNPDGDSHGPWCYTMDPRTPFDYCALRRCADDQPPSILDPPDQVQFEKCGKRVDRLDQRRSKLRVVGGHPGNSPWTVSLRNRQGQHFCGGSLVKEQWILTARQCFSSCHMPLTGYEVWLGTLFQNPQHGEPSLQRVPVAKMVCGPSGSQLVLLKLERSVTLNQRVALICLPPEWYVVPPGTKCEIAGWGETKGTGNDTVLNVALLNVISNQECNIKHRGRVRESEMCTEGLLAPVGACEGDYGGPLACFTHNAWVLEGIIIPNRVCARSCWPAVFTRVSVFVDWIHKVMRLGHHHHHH

Sequence of Recombinant human pro-MSP 689R (C672A, His tag), uncleaved single chain (chain, as listed by the source C672A): as the sequence (chain, as listed by the source C672A R689C) above, with C671R counted along it

B1: sHepsin (extracellular domain of human recombinant hepsin with C-terminal His-tag) (protein)
chain: RSDQEPLYPVQVSSADARLMVFDKTEGTWRLLCSSRSNARVAGLSCEEMGFLRALTHSELDVRTAGANGTSGFFCVDEGRLPHTQRLLEVISVCDCPRGRFLAAICQDCGRRKLPVDDDDKIVGGRDTSLGRWPWQVSLRYDGAHLCGGSLLSGDWVLTAAHCFPERNRVLSRWRVFAGAVAQASPHGLQLGVQAVVYHGGYLPFRDPNSEENSNDIALVHLSSPLPLTEYIQPVCLPAAGQALVDGKICTVTGWGNTQYYGQQAGVLQEARVPIISNDVCNGADFYGNQIKPKMFCAGYPEGGIDACQGDSGGPFVCEDSISRTPRWRLCGIVSWGTGCALAQKPGVYTKVSDFREWIFQAIKTHSEASGMVTQLHHHHHHHH
In the case of B1, the “proteolytic cleavage of pro-MSP by hepsin, SDS-PAGE under reducing conditions, 1 h at 37 C” value [1] is reported as “No obvious difference was observed in the concentration of hepsin required to completely cleave these variants over a 1-hour period” and the “proteolytic cleavage of pro-MSP by hepsin, SDS-PAGE under reducing conditions, 1 h at 37 C” value [2] is reported as “No obvious difference was observed in the concentration of hepsin required to completely cleave these variants over a 1-hour period”.

From patent US20160032013
